Results published in publication PMC10201424, “Biochemical characterisation of Mer3 helicase interactions and the protection of meiotic recombination intermediates” (Nucleic Acids Research, 2022).

Columns and labels:
Mer3 = target: T1, Mer3 (Saccharomyces cerevisiae, UniProt P51979 1-1187); test: EMSA; no Mg or ATP; high affinity; EMSA: 25 mM HEPES pH 7.5, 0.1 ug/ul BSA, 60 mM NaCl, 10 nM DNA, 20 min at 30 C; 0.8% agarose in 1x TAE; Mer3 37.5-300 nM, Mlh1-Mlh2 20-150 nM; conditions: protein: recombinant; tags: C-terminal Twin-StrepII; label: 5'-FAM on strand 1; synthetic D-loop of 4 annealed oligos
T1 sequence: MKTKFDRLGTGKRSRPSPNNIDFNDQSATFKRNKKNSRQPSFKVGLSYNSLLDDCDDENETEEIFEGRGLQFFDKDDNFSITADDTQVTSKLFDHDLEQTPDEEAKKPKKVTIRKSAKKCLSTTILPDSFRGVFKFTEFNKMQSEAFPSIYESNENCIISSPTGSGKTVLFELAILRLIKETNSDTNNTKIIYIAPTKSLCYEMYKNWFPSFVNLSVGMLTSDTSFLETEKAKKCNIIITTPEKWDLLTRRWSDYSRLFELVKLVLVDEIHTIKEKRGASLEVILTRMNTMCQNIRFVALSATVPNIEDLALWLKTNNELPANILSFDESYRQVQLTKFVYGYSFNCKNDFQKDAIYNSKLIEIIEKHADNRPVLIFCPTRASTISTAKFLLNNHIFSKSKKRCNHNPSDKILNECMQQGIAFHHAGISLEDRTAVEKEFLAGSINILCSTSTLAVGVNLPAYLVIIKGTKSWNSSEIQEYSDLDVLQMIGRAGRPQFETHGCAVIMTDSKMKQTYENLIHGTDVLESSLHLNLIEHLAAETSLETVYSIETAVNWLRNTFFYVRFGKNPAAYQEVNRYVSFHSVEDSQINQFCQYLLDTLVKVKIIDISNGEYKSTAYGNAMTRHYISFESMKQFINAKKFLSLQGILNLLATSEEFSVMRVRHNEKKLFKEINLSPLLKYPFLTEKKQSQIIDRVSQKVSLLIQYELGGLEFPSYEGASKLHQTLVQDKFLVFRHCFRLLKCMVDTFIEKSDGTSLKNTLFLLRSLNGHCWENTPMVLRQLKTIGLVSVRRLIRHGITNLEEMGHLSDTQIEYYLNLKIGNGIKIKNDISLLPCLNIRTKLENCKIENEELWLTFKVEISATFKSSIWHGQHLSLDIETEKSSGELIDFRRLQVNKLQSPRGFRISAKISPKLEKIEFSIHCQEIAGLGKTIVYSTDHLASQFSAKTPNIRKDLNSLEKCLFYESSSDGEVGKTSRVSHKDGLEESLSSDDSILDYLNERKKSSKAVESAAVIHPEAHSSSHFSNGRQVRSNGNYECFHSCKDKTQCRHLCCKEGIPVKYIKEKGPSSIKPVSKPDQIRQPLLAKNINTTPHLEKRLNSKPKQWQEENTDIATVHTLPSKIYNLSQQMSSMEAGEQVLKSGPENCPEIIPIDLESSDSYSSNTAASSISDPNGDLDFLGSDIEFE

His-Mlh1;Strep-Mlh2 = target: T2, His-Mlh1;Strep-Mlh2 (Saccharomyces cerevisiae;Saccharomyces …, UniProt P38920;Q07980 1-769;1-695, |); test: EMSA; robust binding; EMSA: 25 mM HEPES pH 7.5, 0.1 ug/ul BSA, 60 mM NaCl, 10 nM DNA, 20 min at 30 C; 0.8% agarose in 1x TAE; Mer3 37.5-300 nM, Mlh1-Mlh2 20-150 nM; conditions: protein: recombinant;recombinant; tags: N-terminal 6xHis;N-terminal Twin-StrepII; copies: 1;1; label: 5'-FAM on strand 1; synthetic D-loop of 4 annealed oligos
T2 sequence 1: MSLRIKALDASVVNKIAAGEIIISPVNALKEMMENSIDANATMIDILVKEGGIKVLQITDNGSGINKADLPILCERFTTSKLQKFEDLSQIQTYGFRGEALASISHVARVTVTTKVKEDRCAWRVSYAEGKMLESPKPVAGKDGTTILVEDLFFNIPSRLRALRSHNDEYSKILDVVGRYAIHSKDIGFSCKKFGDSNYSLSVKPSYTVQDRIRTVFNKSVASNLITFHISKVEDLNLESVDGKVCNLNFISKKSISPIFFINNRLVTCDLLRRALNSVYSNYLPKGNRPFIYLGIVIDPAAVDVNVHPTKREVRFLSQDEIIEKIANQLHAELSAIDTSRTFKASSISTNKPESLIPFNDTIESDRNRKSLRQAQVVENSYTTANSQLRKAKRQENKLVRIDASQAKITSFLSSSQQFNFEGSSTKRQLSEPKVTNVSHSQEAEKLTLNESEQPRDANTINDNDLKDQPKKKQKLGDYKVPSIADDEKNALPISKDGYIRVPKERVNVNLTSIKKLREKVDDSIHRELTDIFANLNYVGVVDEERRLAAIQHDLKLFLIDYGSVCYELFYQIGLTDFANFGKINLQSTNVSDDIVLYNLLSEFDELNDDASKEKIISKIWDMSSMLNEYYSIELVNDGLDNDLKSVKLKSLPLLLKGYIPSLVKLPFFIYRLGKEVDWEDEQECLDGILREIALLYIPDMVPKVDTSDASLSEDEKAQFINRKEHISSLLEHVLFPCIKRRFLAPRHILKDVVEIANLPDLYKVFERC
T2 sequence 2: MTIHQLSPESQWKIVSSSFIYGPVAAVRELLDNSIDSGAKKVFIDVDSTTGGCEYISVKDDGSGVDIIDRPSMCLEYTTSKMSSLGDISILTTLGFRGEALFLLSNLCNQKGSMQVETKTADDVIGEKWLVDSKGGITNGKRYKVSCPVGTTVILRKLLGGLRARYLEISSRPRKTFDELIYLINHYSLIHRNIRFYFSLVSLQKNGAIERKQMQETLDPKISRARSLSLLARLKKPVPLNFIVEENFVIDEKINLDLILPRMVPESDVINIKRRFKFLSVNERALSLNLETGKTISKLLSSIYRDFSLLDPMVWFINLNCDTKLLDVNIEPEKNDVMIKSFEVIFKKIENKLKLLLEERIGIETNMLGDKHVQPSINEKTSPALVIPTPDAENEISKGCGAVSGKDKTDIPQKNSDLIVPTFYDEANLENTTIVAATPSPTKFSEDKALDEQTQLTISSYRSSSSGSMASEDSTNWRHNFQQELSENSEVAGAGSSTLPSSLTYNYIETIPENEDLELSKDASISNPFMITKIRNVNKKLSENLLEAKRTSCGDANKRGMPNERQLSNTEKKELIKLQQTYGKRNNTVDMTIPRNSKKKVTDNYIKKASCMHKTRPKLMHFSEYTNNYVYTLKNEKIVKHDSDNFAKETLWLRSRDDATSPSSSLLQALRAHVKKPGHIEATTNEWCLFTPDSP

MBP-Mlh1;MBP-Mlh2 = target: T3, MBP-Mlh1;MBP-Mlh2 (Saccharomyces cerevisiae;Saccharomyces …, UniProt P38920;Q07980 1-769;1-695, |); test: as above; conditions: protein: recombinant;recombinant; tags: N-terminal 6xHis-MBP;N-terminal 6xHis-MBP; copies: 1;1; label: 5'-FAM on strand 1; synthetic D-loop of 4 annealed oligos
T3 sequence 1: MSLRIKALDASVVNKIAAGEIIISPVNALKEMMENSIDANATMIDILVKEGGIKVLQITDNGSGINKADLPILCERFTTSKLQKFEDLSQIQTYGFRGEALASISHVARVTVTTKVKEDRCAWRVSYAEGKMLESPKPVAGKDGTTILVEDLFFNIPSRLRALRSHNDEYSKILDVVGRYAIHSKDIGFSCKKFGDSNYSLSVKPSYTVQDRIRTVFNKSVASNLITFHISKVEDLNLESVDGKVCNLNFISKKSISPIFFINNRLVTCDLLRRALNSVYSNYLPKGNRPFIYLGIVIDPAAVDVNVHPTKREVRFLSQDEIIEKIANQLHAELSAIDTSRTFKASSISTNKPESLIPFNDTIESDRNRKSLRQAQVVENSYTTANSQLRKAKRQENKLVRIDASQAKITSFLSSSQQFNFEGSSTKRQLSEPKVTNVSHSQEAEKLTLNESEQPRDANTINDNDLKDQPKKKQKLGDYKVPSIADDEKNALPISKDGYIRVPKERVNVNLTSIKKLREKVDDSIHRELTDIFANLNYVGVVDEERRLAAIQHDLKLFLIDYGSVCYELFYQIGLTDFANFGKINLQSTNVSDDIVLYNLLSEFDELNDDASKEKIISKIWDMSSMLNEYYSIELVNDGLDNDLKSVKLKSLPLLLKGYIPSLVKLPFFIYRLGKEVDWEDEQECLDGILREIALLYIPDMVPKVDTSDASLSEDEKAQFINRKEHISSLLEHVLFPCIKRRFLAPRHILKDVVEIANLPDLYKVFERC
T3 sequence 2: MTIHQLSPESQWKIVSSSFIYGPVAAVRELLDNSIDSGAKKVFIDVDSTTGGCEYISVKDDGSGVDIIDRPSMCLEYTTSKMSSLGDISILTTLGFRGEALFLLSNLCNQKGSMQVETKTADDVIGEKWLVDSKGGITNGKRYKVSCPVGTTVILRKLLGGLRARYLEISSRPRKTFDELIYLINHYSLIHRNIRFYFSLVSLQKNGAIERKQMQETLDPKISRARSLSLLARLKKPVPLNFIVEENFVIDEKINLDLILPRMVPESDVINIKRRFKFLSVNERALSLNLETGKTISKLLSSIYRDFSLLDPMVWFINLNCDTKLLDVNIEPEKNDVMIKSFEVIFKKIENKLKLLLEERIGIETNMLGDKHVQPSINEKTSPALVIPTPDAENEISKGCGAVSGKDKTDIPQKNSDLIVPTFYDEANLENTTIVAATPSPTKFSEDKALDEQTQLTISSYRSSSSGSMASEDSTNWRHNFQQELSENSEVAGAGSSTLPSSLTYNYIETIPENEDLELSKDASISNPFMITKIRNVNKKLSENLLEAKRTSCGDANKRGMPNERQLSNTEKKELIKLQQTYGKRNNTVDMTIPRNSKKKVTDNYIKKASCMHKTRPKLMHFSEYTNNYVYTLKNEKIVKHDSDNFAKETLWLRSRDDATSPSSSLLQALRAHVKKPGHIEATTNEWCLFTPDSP

Measured: binding result

B1: D-loop (1253-T, 315, 320, X12-3SC) (mixed)
DNA 1: GGGTCAACGTGGGCAAAGATGTCCTAGCAATGTAATCGTCTATGACGTT
DNA 2: AACGTCATAGACGATGATCCGATGCATATCCGCCTGCCCACGTTGACCC
DNA 3: GCGATAGTCTCTAGACAGCATGTCCTAGCAATACATTGCTAGGACATCTT
DNA 4: TTGCTAGGACATGCTGTCTAGAGACTATCGC
binds: Mer3 | His-Mlh1;Strep-Mlh2 | MBP-Mlh1;MBP-Mlh2
